Source: patent US20200277374A1 (Alector, published 2020)

Key:
S47A = target: T1, S47A (human, UniProt Q9Y286); test: flow cytometry on HEK-293T cells expressing the mutant; mean % of wild-type signal (range of duplicates)
T1 construct: clone of the siglec-7 mutation library; also called Siglec-7 S47A
Method: (§1) Shotgun mutagenesis epitope mapping of anti-siglec-7 antibodies was performed using an alanine-scanning library for the siglec-7 protein. […] Each of residues 19 to 353 was mutated, representing the siglec-7 extracellular domain, most to alanine, while alanine codons were mutated to serine. In total, 335 siglec-7 mutant expression constructs were generated, sequences confirmed, and arrayed into a 384-well plate, one mutant per well.
(§2) Cells were then incubated with MAbs diluted in 10% o normal goat serum (NGS) (Sigma-Aldrich, St. Louis, Mo.). Prior to library screening, primary MAb concentrations were determined using an independent immunofluorescence titration curve against cells expressing wild-type siglec-7 to ensure that signals were within the linear range of detection. MAbs were detected using 3.75 μg/ml AlexaFluor488-conjugated secondary antibody (Jackson immunoResearch Laboratories, Westgrove, Pa.) in 10% NGS. Cells were washed twice with PBS−/− and resuspended in Cellstripper (Cellgro, Manassas, Va.) with 0.1% BSA (Sigma-Aldrich, St. Louis, Mo.). Mean cellular fluorescence was detected using the Intellicyt high throughput flow cytometer (HTFC, Intellicyt, Albuquerque, N. Mex.). MAb reactivities against each mutant clone were calculated relative to wild-type siglec-7 protein reactivity by subtracting the signal from mock-transfected controls, and normalizing to the signal from wild-type siglec-7-transfected controls.

M30A = target: T2, M30A (human, UniProt Q9Y286); test: as above
T2 construct: clone of the siglec-7 mutation library; also called Siglec-7 M30A
Method: as §1, §2

R45A = target: T3, R45A (human, UniProt Q9Y286); test: as above
T3 construct: clone of the siglec-7 mutation library; also called Siglec-7 R45A
Method: as §1, §2

M185A = target: T4, M185A (human, UniProt Q9Y286); test: as above
T4 construct: clone of the siglec-7 mutation library; also called Siglec-7 M185A
Method: as §1, §2

W74A = target: T5, W74A (human, UniProt Q9Y286); test: as above
T5 construct: clone of the siglec-7 mutation library; also called Siglec-7 W74A
Method: as §1, §2

I72A = target: T6, I72A (human, UniProt Q9Y286); test: as above
T6 construct: clone of the siglec-7 mutation library; also called Siglec-7 I72A
Method: as §1, §2

F48A = target: T7, F48A (human, UniProt Q9Y286); test: as above
T7 construct: clone of the siglec-7 mutation library; also called Siglec-7 F48A
Method: as §1, §2

N81A = target: T8, N81A (human, UniProt Q9Y286); test: as above
T8 construct: clone of the siglec-7 mutation library; also called Siglec-7 N81A
Method: as §1, §2

K104A = target: T9, K104A (human, UniProt Q9Y286); test: as above
T9 construct: clone of the siglec-7 mutation library; also called Siglec-7 K104A
Method: as §1, §2

T103A = target: T10, T103A (human, UniProt Q9Y286); test: as above
T10 construct: clone of the siglec-7 mutation library; also called Siglec-7 T103A
Method: as §1, §2

V44A = target: T11, V44A (human, UniProt Q9Y286); test: as above
T11 construct: clone of the siglec-7 mutation library; also called Siglec-7 V44A
Method: as §1, §2

Y50A = target: T12, Y50A (human, UniProt Q9Y286); test: as above
T12 construct: clone of the siglec-7 mutation library; also called Siglec-7 Y50A
Method: as §1, §2

[1] = target: T13, human Siglec-7 expressed on human cells (primary monocytes, dendritic cells, macrophages, NK cells, … (human, UniProt Q9Y286 19-467)); test: cell-based or functional assay
[2] = target: T13, human Siglec-7 expressed on human cells …; test: FACS titration on primary human dendritic cells, donor 359, 4 C
Method: Two Siglec-7 antibodies, 4E3 and 10B5, were titrated 2-fold for a 12-point curve with a concentration range of 6.67-0.00325 nM to assess binding and calculate half-maximal concentration (EC₅₀) for binding to primary human dendritic cells (FIG. 5B). Antibodies were serially diluted and incubated with cells in PBS with 1% BSA, 1 mM EDTA for 1 hour on ice (4° C.). Cells were pelleted and resuspended with goat anti-mouse secondary antibody conjugated with APC (BD Biosciences) at a 1:200 dilution in buffer. Secondary detection antibody was incubated for 30 minutes on ice (4° C.), then cells were washed 3 times in buffer before analyzing on a BD FACS Canto for APC MR. Data were analyzed with FlowJo Software (TreeStar).

[3] = target: T13, human Siglec-7 expressed on human cells …; test: cell-based or functional assay; remark: listed apart in the source

T13 sequence (Q9Y286 19-467): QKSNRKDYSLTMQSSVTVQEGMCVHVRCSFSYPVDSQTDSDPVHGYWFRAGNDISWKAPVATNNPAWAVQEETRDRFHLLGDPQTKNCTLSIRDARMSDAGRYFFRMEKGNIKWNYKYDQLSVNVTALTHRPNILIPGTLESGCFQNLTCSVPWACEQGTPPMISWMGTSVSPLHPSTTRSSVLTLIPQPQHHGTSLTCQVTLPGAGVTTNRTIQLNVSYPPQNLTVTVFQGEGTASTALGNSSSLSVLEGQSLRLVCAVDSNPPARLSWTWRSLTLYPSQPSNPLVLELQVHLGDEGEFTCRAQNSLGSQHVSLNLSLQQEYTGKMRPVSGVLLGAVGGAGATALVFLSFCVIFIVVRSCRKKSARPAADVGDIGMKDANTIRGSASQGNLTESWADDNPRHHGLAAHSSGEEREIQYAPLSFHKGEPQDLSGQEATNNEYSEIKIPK
T2 sequence (Q9Y286 19-467 M30A limits assumed): as the sequence (Q9Y286 19-467) above, with M12A counted along it
T1 sequence (Q9Y286 19-467 S47A limits assumed): as the sequence (Q9Y286 19-467) above, with S29A counted along it
T12 sequence (Q9Y286 19-467 Y50A limits assumed): as the sequence (Q9Y286 19-467) above, with Y32A counted along it
T10 sequence (Q9Y286 19-467 T103A limits assumed): as the sequence (Q9Y286 19-467) above, with T85A counted along it
T6 sequence (Q9Y286 19-467 I72A limits assumed): as the sequence (Q9Y286 19-467) above, with I54A counted along it
T4 sequence (Q9Y286 19-467 M185A limits assumed): as the sequence (Q9Y286 19-467) above, with M167A counted along it
T8 sequence (Q9Y286 19-467 N81A limits assumed): as the sequence (Q9Y286 19-467) above, with N63A counted along it
T7 sequence (Q9Y286 19-467 F48A limits assumed): as the sequence (Q9Y286 19-467) above, with F30A counted along it
T5 sequence (Q9Y286 19-467 W74A limits assumed): as the sequence (Q9Y286 19-467) above, with W56A counted along it
T3 sequence (Q9Y286 19-467 R45A limits assumed): as the sequence (Q9Y286 19-467) above, with R27A counted along it
T9 sequence (Q9Y286 19-467 K104A limits assumed): as the sequence (Q9Y286 19-467) above, with K86A counted along it
T11 sequence (Q9Y286 19-467 V44A limits assumed): as the sequence (Q9Y286 19-467) above, with V26A counted along it

Binding Reactivity (% WT) (S47A): 81.7 % WT
Binding Reactivity (% WT) (M30A): 89.9 % WT
Binding Reactivity (% WT) (R45A): 37.3 % WT
Binding Reactivity (% WT) (M185A): 29.1 % WT
Binding Reactivity (% WT) (W74A): 101 % WT
Binding Reactivity (% WT) (I72A): 130 % WT
Binding Reactivity (% WT) (F48A): 159 % WT
Binding Reactivity (% WT) (N81A): 153 % WT
Binding Reactivity (% WT) (K104A): 13.6 % WT
Binding Reactivity (% WT) (T103A): 96.3 % WT
Binding Reactivity (% WT) (V44A): 93.9 % WT
Binding Reactivity (% WT) (Y50A): 108 % WT
Percent Siglec-7 Surface Expression, Macrophages [1]: 3.2%
Percent Siglec-7 Surface Expression, Microglia [1]: 5.5%
Percent Siglec-7 Surface Expression, NK cells [1]: 25.5%
EC50 [2]: 1.16 nM
Percent Siglec-7 Surface Expression, DCs [3]: 16.8%
Percent Siglec-7 Surface Expression, Monocytes [3]: 6.7%
Percent Siglec-7 Surface Expression, U937 cells [3]: 36.5%
B1: anti-Siglec-7 antibody 10B5 (antibody, V domains shown)
VH: QVHLQQSGPELVKPGASVKISCKASGYAFTNCWMNWVRQRPGKGLDWIGRIFPGNGHTNYSGKFKDKATLTEDKSSSTAYMQLSSLTSEDSAVYFCARDYSDYYFDYWGQGTTLTVSS
VL: DVQMTQTTSSLSASLGDRVTISCRASQDINTYLNWYQQKPDGTVKLLIYYTSRLHSGVPSRFSGSGSGTDYSLTISNLEQEDIATYFCQQGNTLPWTFGGGTKLEIK
notes: that light chain holds several Z and differs in its CDRs from S7-10B5.1 / 10B5L1; also called S7-10B5; mAb S7-10B5
